Assay results as given in patent US7510715 (US Dept. of Health and Human Services, dated 2009).

B3: human CCR5 on cells (CEM.NKR-CCR5 transfectants; PM1 T cells; PBMCs; macrophages) (receptor)
chain: not shown
notes: whole, on cells; also called hCCR5

Experiments:
[1] = target: B3; assay: saturation binding of 125I-C-18 to CEM.NKR-CCR5 cells, 90 minutes at 4° C.
[2] = target: B3; assay: saturation binding of 125I-labeled human MIP-1β to CEM.NKR-CCR5 cells, 90 minutes at 4° C.
Procedure: The bound fraction was then measured and the dissociation constant for ligand binding calculated using a Graph Pad Prism software program (Mackiev, Cupertino, Calif.). […] Cells were then washed and the bound fraction measured radioactively.

human cyclophilin A = target: T1, human cyclophilin A (human, UniProt P62937 1-165); assay: competition with 125I-C-18 on CEM.NKR.CCR5 cells (method in paragraph 111)
T1 construct: also called recombinant human cyclophilin
T1 sequence (P62937 whole entry): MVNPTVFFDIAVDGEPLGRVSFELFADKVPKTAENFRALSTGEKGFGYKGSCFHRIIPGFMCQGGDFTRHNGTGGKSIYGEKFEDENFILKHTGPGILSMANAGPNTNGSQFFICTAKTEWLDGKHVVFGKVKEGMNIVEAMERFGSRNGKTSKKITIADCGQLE

B1: Toxoplasma gondii cyclophilin-18 (C-18), recombinant (ligand)
chain: not shown
[1]
  Kd: 3.65 nM

B2: human macrophage inflammatory protein 1β (MIP-1β) (ligand, UniProt P13236 24-92, looked up)
chain: APMGSDPPTACCFSYTARKLPRNFVVDYYETSSLCSQPAVVFQTKRSKQVCADPSESWVQEYVYDLELN
notes: also called MIP-1B; human MIP-1 B
[2]
  Kd: 0.559 nM

## B3
Human cyclophilin A
  binding result: no binding
